According to patent US20200025759A1 (PANASONIC INTELLECTURAL PROPERTY MANAGEMENT, published 2020):

B1: VHH antibody consisting of the amino acid sequence represented by SEQ ID NO: 8 (VHH)
VHH: QVQLVESGGGLVQAGGSLRLSCIASGSIFSPNVMGWYRQAPGKPRELVAAITLGESTNYADSVKGRFTISRSNAENTVYLQMDSLKPEDTAVYYCNAGPILERVGPYWGQGTQVTVSS
B2: phage-displayed VHH antibody (protein synthesized from the DNA sequence represented by SEQ ID NO: 18, i.e. SEQ ID NO: 8) (VHH)
VHH: B1 VHH

Key:
[1] = target: intranuclear protein derived from type-A influenza virus H1N1 (A/Puerto Rico/8/34/Mount Sinai) (type-A influenza virus H1N1 (A/Puerto …, UniProt P03466 1-498)); assay: ELISA, virus solution immobilized on plate, anti-His-HRP detection
Chain of intranuclear protein derived from type-A influenza virus H1N1 (A/Puerto Rico/8/34/Mount Sinai) (type-A influenza virus H1N1 (P03466 whole entry): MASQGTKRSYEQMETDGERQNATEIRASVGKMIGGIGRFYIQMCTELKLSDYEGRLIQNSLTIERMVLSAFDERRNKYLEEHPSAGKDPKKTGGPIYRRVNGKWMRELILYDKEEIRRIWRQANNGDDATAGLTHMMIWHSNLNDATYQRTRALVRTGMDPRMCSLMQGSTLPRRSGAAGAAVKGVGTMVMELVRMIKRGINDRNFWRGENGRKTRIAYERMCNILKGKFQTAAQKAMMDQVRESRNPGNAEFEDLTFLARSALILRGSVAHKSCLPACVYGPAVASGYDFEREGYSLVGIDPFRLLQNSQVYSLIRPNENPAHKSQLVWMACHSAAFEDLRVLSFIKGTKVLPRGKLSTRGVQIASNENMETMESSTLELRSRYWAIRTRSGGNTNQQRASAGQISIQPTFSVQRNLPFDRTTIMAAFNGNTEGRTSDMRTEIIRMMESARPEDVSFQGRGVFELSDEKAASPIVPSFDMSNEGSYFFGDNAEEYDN

[2] = target: intranuclear protein derived from type-A influenza virus H7N7 (A/seal/Massachusetts/1/1980) (type-A influenza virus H7N7 …, UniProt P26053 1-498); assay: as above
Chain of intranuclear protein derived from type-A influenza virus H7N7 (A/seal/Massachusetts/1/1980) (P26053 whole entry): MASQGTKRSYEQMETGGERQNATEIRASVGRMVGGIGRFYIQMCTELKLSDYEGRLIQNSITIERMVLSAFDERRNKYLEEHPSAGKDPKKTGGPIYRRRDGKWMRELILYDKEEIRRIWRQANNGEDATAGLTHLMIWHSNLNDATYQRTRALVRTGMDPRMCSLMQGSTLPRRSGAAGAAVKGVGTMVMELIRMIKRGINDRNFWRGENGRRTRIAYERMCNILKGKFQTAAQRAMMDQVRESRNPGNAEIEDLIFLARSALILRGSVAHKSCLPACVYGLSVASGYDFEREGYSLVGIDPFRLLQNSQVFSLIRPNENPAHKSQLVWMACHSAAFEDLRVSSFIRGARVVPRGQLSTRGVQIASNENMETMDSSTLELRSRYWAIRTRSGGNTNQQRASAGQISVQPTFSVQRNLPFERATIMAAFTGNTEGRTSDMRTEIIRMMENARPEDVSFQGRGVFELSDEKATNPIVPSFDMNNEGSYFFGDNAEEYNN

[3] = target: intranuclear protein derived from type-A influenza virus H11N6 (A/duck/England/1/1956) (type-A influenza virus H11N6 …, UniProt P26062 1-498); assay: as above
Chain of intranuclear protein derived from type-A influenza virus H11N6 (A/duck/England/1/1956) (P26062 whole entry): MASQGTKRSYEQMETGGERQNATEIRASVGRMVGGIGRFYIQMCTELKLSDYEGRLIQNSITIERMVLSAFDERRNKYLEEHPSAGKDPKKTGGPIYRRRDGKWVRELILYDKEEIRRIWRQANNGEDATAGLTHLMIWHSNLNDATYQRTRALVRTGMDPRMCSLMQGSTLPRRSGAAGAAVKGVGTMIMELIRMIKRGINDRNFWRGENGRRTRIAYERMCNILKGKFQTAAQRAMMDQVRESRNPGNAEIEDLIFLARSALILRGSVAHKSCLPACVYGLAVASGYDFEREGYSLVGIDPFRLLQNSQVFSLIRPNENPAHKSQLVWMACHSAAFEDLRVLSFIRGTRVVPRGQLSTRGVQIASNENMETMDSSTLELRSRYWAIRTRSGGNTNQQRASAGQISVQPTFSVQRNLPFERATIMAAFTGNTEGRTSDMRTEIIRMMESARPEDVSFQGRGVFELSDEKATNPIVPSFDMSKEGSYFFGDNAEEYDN

[4] = target: recombinant nucleoprotein (NP) protein derived from influenza virus H1N1 to which a Flag tag was fus (influenza virus H1N1)
Chain of recombinant nucleoprotein (NP) protein derived from influenza virus H1N1 to which a Flag tag was fus (influenza virus H1N1) (P03466 whole entry): as the sequence (P03466 whole entry) above

[5] = target: recombinant intranuclear protein (SEQ ID NO: 24) derived from a type-A influenza virus H1N1 (A/Puert (type-A influenza virus H1N1 (A/Puerto …, UniProt P03466 1-498))); assay: phage ELISA on immobilized NP, anti-M13 detection, absorbance at 450 nm
Chain of recombinant intranuclear protein (SEQ ID NO: 24) derived from a type-A influenza virus H1N1 (A/Puert (type-A influenza virus H1N1 (P03466 whole entry): as above

Binder | binding result [1] | binding result [2] | binding result [3] | Kd [4] | binding result [5]
B1 | binds | binds | binds | 0.826 nM | 
B2 |  |  |  |  | binds
